Laboratory results published in publication PMC10107152.

Substrate: CC(C)(COP(=O)(O)OP(=O)(O)OC[C@H]1O[C@@H](n2cnc3c(N)ncnc32)[C@H](O)[C@@H]1OP(=O)(O)O)[C@@H](O)C(=O)NCCC(=O)NCCSC(=O)/C=C/c1ccccc1
Assay: purified protein
Details: varied cinnamoyl-CoA; malonyl-CoA as extender

B1: 2PS (2-pyrone synthase; WT-2PS) (Gerbera hybrid cultivar) (protein)
chain: MGSYSSDDVEVIREAGRAQGLATILAIGTATPPNCVAQADYADYYFRVTKSEHMVDLKEKFKRICEKTAIKKRYLALTEDYLQENPTMCEFMAPSLNARQDLVVTGVPMLGKEAAVKAIDEWGLPKSKITHLIFCTTAGVDMPGADYQLVKLLGLSPSVKRYMLYQQGCAAGGTVLRLAKDLAENNKGSRVLIVCSEITAILFHGPNENHLDSLVAQALFGDGAAALIVGSGPHLAVERPIFEIVSTDQTILPDTEKAMKLHLREGGLTFQLHRDVPLMVAKNIENAAEKALSPLGITDWNSVFWMVHPGGRAILDQVERKLNLKEDKLRASRHVLSEYGNLISACVLFIIDEVRKRSMAEGKSTTGEGLDCGVLFGFGPGMTVETVVLRSVRVTAAVANGN
B1 gave a Km of 1.6 ± 0.5 µM, a kcat of 0.000533 ± 5e-05 s⁻¹ and a kcat/Km of 340 ± 60 M⁻¹ s⁻¹.

B2: 2PS (2-pyrone synthase; WT-2PS) (Gerbera hybrid cultivar; I201V/I343S/L202T) (protein)
chain: MGSYSSDDVEVIREAGRAQGLATILAIGTATPPNCVAQADYADYYFRVTKSEHMVDLKEKFKRICEKTAIKKRYLALTEDYLQENPTMCEFMAPSLNARQDLVVTGVPMLGKEAAVKAIDEWGLPKSKITHLIFCTTAGVDMPGADYQLVKLLGLSPSVKRYMLYQQGCAAGGTVLRLAKDLAENNKGSRVLIVCSEITAVTFHGPNENHLDSLVAQALFGDGAAALIVGSGPHLAVERPIFEIVSTDQTILPDTEKAMKLHLREGGLTFQLHRDVPLMVAKNIENAAEKALSPLGITDWNSVFWMVHPGGRAILDQVERKLNLKEDKLRASRHVLSEYGNLSSACVLFIIDEVRKRSMAEGKSTTGEGLDCGVLFGFGPGMTVETVVLRSVRVTAAVANGN
Protein B2 has a Km of 1.4 ± 0.3 µM, a kcat of 0.000767 ± 3.33e-05 s⁻¹ and a kcat/Km of 568 ± 116 M⁻¹ s⁻¹.

B3: 2PS (2-pyrone synthase; WT-2PS) (Gerbera hybrid cultivar; I201V/I343S/L202T/L261G) (protein)
chain: MGSYSSDDVEVIREAGRAQGLATILAIGTATPPNCVAQADYADYYFRVTKSEHMVDLKEKFKRICEKTAIKKRYLALTEDYLQENPTMCEFMAPSLNARQDLVVTGVPMLGKEAAVKAIDEWGLPKSKITHLIFCTTAGVDMPGADYQLVKLLGLSPSVKRYMLYQQGCAAGGTVLRLAKDLAENNKGSRVLIVCSEITAVTFHGPNENHLDSLVAQALFGDGAAALIVGSGPHLAVERPIFEIVSTDQTILPDTEKAMKGHLREGGLTFQLHRDVPLMVAKNIENAAEKALSPLGITDWNSVFWMVHPGGRAILDQVERKLNLKEDKLRASRHVLSEYGNLSSACVLFIIDEVRKRSMAEGKSTTGEGLDCGVLFGFGPGMTVETVVLRSVRVTAAVANGN
With B3 the Km was 7.1 ± 1.1 µM, the kcat was 0.165 ± 0.01 s⁻¹ and the kcat/Km was 23000 ± 4000 M⁻¹ s⁻¹.

B4: 2PS (2-pyrone synthase; WT-2PS) (Gerbera hybrid cultivar; I201V/I343S/L202T/L261V) (protein)
chain: MGSYSSDDVEVIREAGRAQGLATILAIGTATPPNCVAQADYADYYFRVTKSEHMVDLKEKFKRICEKTAIKKRYLALTEDYLQENPTMCEFMAPSLNARQDLVVTGVPMLGKEAAVKAIDEWGLPKSKITHLIFCTTAGVDMPGADYQLVKLLGLSPSVKRYMLYQQGCAAGGTVLRLAKDLAENNKGSRVLIVCSEITAVTFHGPNENHLDSLVAQALFGDGAAALIVGSGPHLAVERPIFEIVSTDQTILPDTEKAMKVHLREGGLTFQLHRDVPLMVAKNIENAAEKALSPLGITDWNSVFWMVHPGGRAILDQVERKLNLKEDKLRASRHVLSEYGNLSSACVLFIIDEVRKRSMAEGKSTTGEGLDCGVLFGFGPGMTVETVVLRSVRVTAAVANGN
B4 gave a Km of 2.1 ± 0.5 µM, a kcat of 0.00225 ± 0.000167 s⁻¹ and a kcat/Km of 1070 ± 270 M⁻¹ s⁻¹.

B5: 2PS (2-pyrone synthase; WT-2PS) (Gerbera hybrid cultivar; I201V/I343S/L202T/L261A) (protein)
chain: MGSYSSDDVEVIREAGRAQGLATILAIGTATPPNCVAQADYADYYFRVTKSEHMVDLKEKFKRICEKTAIKKRYLALTEDYLQENPTMCEFMAPSLNARQDLVVTGVPMLGKEAAVKAIDEWGLPKSKITHLIFCTTAGVDMPGADYQLVKLLGLSPSVKRYMLYQQGCAAGGTVLRLAKDLAENNKGSRVLIVCSEITAVTFHGPNENHLDSLVAQALFGDGAAALIVGSGPHLAVERPIFEIVSTDQTILPDTEKAMKAHLREGGLTFQLHRDVPLMVAKNIENAAEKALSPLGITDWNSVFWMVHPGGRAILDQVERKLNLKEDKLRASRHVLSEYGNLSSACVLFIIDEVRKRSMAEGKSTTGEGLDCGVLFGFGPGMTVETVVLRSVRVTAAVANGN
Protein B5 has a Km of 4.2 ± 0.8 µM, a kcat of 0.0312 ± 0.00233 s⁻¹ and a kcat/Km of 7400 ± 1500 M⁻¹ s⁻¹.

B6: SPS (styrylpyrone synthase; WT-SPS) (Piper methysticum) (protein)
chain: MSKTVEDRAAQRAKGPATVLAIGTATPANVVYQTDYPDYYFRVTKSEHMTKLKNKFQRMCDRSTIKKRYMVLTEELLEKNLSLCTYMEPSLDARQDILVPEVPKLGKEAADEAIAEWGRPKSEITHLIFCTTCGVDMPGADYQLTKLLGLRSSVRRTMLYQQGCFGGGTVLRLAKDLAENNAGARVLVVCSEITTAVNFRGPSDTHLDLLVGLALFGDGAAAVIVGADPDPTLERPLFQIVSGAQTILPDSEGAINGHLREVGLTIRLLKDVPGLVSMNIEKCLMEAFAPMGIHDWNSIFWIAHPGGPTILDQVEAKLGLKEEKLKSTRAVLREYGNMSSACVLFILDEVRKRSMEEGKTTTGEGFDWGVLFGFGPGFTVETVVLHSMPIPKADEGR
Work on B6 yielded a Km of 3.7 ± 0.5 µM, a kcat of 0.00287 ± 0.0001 s⁻¹ and a kcat/Km of 770 ± 30 M⁻¹ s⁻¹.
